Results from patent US20090053180A1, “Tandem cardiac pacemaker system” (priority 2005, published 2009).
Entries after “also recorded” stand apart in the source; their conditions may differ.

Assays:
[1] = tested on: cell-free patches from Xenopus oocytes; details: cited from earlier work
[2] = tested on: dogs with complete AV block; test: Tandem biological and electronic pacemakers in dogs with complete AV block (injection into left bundle branch); type: in vivo, dog
Description: Adult mongrel dogs weighing 22-25 kg were anesthetized with propofol 6 mg/kg IV and inhalational isoflurane (1.5%-2.5%). Using a steerable catheter, saline (n=5), AdmHCN2 (n=6) or AdmE324A (n=4) were injected into the left bundle branch (LBB) as described previously (Plotnikov et al., 2004). In 2 additional dogs AdmE324A was injected into the LV septal myocardium as an internal control. Complete AV block was induced via radiofrequency ablation and each site of injection was paced via catheter electrode to distinguish electrocardiographically the origin of the idioventricular rhythm during the follow up period.
An electronic pacemaker (Discovery II, Flextend lead; Guidant, Indianapolis, Ind.) was implanted and set at VVI 45 bpm. ECG, 24 hour Holter monitoring, pacemaker log record check, and overdrive pacing at 80 bpm were performed daily for 14 days. To evaluate beta-adrenergic responsiveness, on day 14, epinephrine (1.0, 1.5 and 2.0 μg/kg/min for up to 10 min each) was infused to an endpoint of a 50% increase in idioventricular rate or ventricular arrhythmia (single ventricular premature beats having a morphology other than that of the dominant idioventricular rhythm or ventricular tachycardia), whichever occurred first. If none of the above responses was observed within 10 min after onset of the maximal dose of 2 μg/kg/min, the infusion was terminated.
Data are presented as means±SEM. […] One-way ANOVA was used to evaluate the effect of an implanted construct on electrophysiological parameters. Subsequent analysis was performed using Bonferroni's test where equal variances were assumed and the Games-Howell test where variances were unequal. A two-way contingency table analysis was conducted to evaluate whether epinephrine had different effects across three groups. Data were analyzed using SPSS for Windows software (SPSS, Inc.). P<0.05 was considered to be significant.
Complete AV block was induced via radiofrequency ablation, and electronic pacemakers were implanted into the right ventricular apical endocardium and set a VV1 45 bpm. ECG and 24-h monitoring were performed daily for 14 days. Beta-adrenergic responsiveness was also evaluated as described above.
Escape time was evaluated daily by performing three 30-s periods of ventricular overdrive pacing at 80 bpm followed by an abrupt cessation of pacing. The average time between the final electronically paced beat and the first intrinsic beat was then determined. […] There was a different result with regard to basal heart rates throughout the 14-day period, however.

[3] = tested on: Xenopus oocytes; test: Two-microelectrode voltage clamp of expressed HCN current in Xenopus oocytes; type: cell-based, Xenopus laevis
[4] = tested on: newborn rat ventricular myocytes; test: Whole-cell voltage clamp of expressed HCN current in newborn rat ventricular myocytes; type: cell-based; details: for V1/2 / s: fit of average data
Description: Adult rats were anesthetized with ketamine-xylazine before cardiectomy, and neonatal rats decapitated. Newborn rat ventricular myocyte cultures were prepared as previously described (Protas and Robinson, 1999). Briefly, 1-2-day-old Wistar rats were euthanized, hearts were quickly removed and ventricles were dissociated using a standard trypsinization procedure. Myocytes were harvested, preplated to reduce fibroblast proliferation, cultured initially in serum-containing medium (except when being transfected with plasmids as described below), and then incubated in serum free medium (SFM) at 37° C., 5% CO2 after 24 h. Action potential studies were conducted on 4-day-old monolayer cultures plated directly onto fibronectin-coated 9×22 mm glass coverslips. For voltage clamp experiments, 4-6 day old monolayer cultures were resuspended by brief (2-3 min) exposure to 0.25% trypsin, then replated onto fibronectin-coated coverslips and studied within 2-8 h.
Adenoviral infection of the newborn ventricular myocytes was performed on cell monolayer cultures 4 days after initial plating. Cells were exposed to a virus-containing mix (m.o.i. 20, in 250 μl of culture medium) for 2 h, rinsed twice and incubated in SFM at 37° C., 5% CO2 for 24-48 hours prior to the cells being resuspended as described above for electrophysiological study.
The whole-cell patch clamp technique was employed to record mHCN2 current from cultured myocytes. Experiments were carried out on cells superfused at 35° C. The external solution contained (mM): NaCl, 140; NaOH, 2.3; MgCl2, 1; KCl, 10; CaCl2, 1; HEPES, 5; glucose, 10; pH 7.4. MnCl2 (2 mM) and BaCl2 (4 mM) were added to block other currents. The pipette solution contained (mM): aspartic acid, 130; KOH, 146; NaCl, 10; CaCl2, 2; EGTA-KOH, 5; Mg-ATP, 2; HEPES-KOH, 10; pH 7.2.
To measure the HCN activation curve, a standard two-step protocol was employed. Hyperpolarizing steps from −25 to −135 mV for mHCN2 and from −5 or −15 to −135 mV for mE324A were applied from a holding potential of −10 mV, followed by a tail current step (to −125 or −135 mV). The duration of test steps was longer at less hyperpolarized potential for mHCN2 channels, to more closely approach steady-state activation at all voltages. The normalized plot of tail current versus test voltage was fit with a Boltzmann function and then the voltage of half maximum activation (V1/2) and slope factor(s) were defined from the fitting. Activation kinetics were determined from the same traces, while deactivation kinetics were determined from traces recorded at each test potential after achieving full activation by a prepulse to −135 mV. Time constants were then obtained by fitting the early time course of activation or deactivation current traces with a monoexponential function; the initial delay and any late slow activation or deactivation phase were ignored (Qu et al., 2001; Altomare et al., 2001). Current densities are expressed as the value of the time-dependent component of current amplitude, measured at the end of the test potential and normalized to cell membrane capacitance. Records were not corrected for liquid junction potential, which was previously determined to be 9.8 mV under these conditions (Qu et al., 2001).

[5] = 10 μM cAMP in the pipette solution

B1: HCN1: HCN1 isoform of hyperpolarization-activated, cyclic nucleotide-gated ion channel (protein, UniProt O60741 1-890, looked up)
Potassium/sodium …: MEGGGKPNSSSNSRDDGNSVFPAKASATGAGPAAAEKRLGTPPGGGGAGAKEHGNSVCFKVDGGGGGGGGGGGGEEPAGGFEDAEGPRRQYGFMQRQFTSMLQPGVNKFSLRMFGSQKAVEKEQERVKTAGFWIIHPYSDFRFYWDLIMLIMMVGNLVIIPVGITFFTEQTTTPWIIFNVASDTVFLLDLIMNFRTGTVNEDSSEIILDPKVIKMNYLKSWFVVDFISSIPVDYIFLIVEKGMDSEVYKTARALRIVRFTKILSLLRLLRLSRLIRYIHQWEEIFHMTYDLASAVVRIFNLIGMMLLLCHWDGCLQFLVPLLQDFPPDCWVSLNEMVNDSWGKQYSYALFKAMSHMLCIGYGAQAPVSMSDLWITMLSMIVGATCYAMFVGHATALIQSLDSSRRQYQEKYKQVEQYMSFHKLPADMRQKIHDYYEHRYQGKIFDEENILNELNDPLREEIVNFNCRKLVATMPLFANADPNFVTAMLSKLRFEVFQPGDYIIREGAVGKKMYFIQHGVAGVITKSSKEMKLTDGSYFGEICLLTKGRRTASVRADTYCRLYSLSVDNFNEVLEEYPMMRRAFETVAIDRLDRIGKKNSILLQKFQKDLNTGVFNNQENEILKQIVKHDREMVQAIAPINYPQMTTLNSTSSTTTPTSRMRTQSPPVYTATSLSHSNLHSPSPSTQTPQPSAILSPCSYTTAVCSPPVQSPLAARTFHYASPTASQLSLMQQQPQQQVQQSQPPQTQPQQPSPQPQTPGSSTPKNEVHKSTQALHNTNLTREVRPLSASQPSLPHEVSTLISRPHPTVGESLASIPQPVTAVPGTGLQAGGRSTVPQRVTLFRQMSSGAIPPNRGVPPAPPPPAAALPRESSSVLNTDPDAEKPRFASNL
[1]
  shift of activation curve to more positive potentials by cAMP: 4 mV

B2: mE324A: mHCN2 channel with E324A point mutation, expressed from cRNA or adenoviral construct AdmE324A (protein, UniProt O88703 1-863, looked up, variant E324A)
Potassium/sodium …: MDARGGGGRPGDSPGTTPAPGPPPPPPPPAPPQPQPPPAPPPNPTTPSHPESADEPGPRARLCSRDSACTPGAAKGGANGECGRGEPQCSPEGPARGPKVSFSCRGAASGPSAAEEAGSEEAGPAGEPRGSQASFLQRQFGALLQPGVNKFSLRMFGSQKAVEREQERVKSAGAWIIHPYSDFRFYWDFTMLLFMVGNLIIIPVGITFFKDETTAPWIVFNVVSDTFFLMDLVLNFRTGIVIEDNTEIILDPEKIKKKYLRTWFVVDFVSSIPVDYIFLIVEKGIDSEVYKTARALRIVRFTKILSLLRLLRLSRLIRYIHQWAEIFHMTYDLASAVMRICNLISMMLLLCHWDGCLQFLVPMLQDFPSDCWVSINNMVNHSWSELYSFALFKAMSHMLCIGYGRQAPESMTDIWLTMLSMIVGATCYAMFIGHATALIQSLDSSRRQYQEKYKQVEQYMSFHKLPADFRQKIHDYYEHRYQGKMFDEDSILGELNGPLREEIVNFNCRKLVASMPLFANADPNFVTAMLTKLKFEVFQPGDYIIREGTIGKKMYFIQHGVVSVLTKGNKEMKLSDGSYFGEICLLTRGRRTASVRADTYCRLYSLSVDNFNEVLEEYPMMRRAFETVAIDRLDRIGKKNSILLHKVQHDLSSGVFNNQENAIIQEIVKYDREMVQQAELGQRVGLFPPPPPPQVTSAIATLQQAVAMSFCPQVARPLVGPLALGSPRLVRRAPPGPLPPAASPGPPAASPPAAPSSPRAPRTSPYGVPGSPATRVGPALPARRLSRASRPLSASQPSLPHGVPAPSPAASARPASSSTPRLGPAPTARTAAPSPDRRDSASPGAASGLDPLDSARSRLSSNL
[2]; 14 days, electronic pacemaker set at VVI 45 bpm
  beats triggered by the electronic pacemaker, of all beats: 36±7%
[2]; day 14
  arrhythmias during epinephrine infusion: no arrhythmias were seen
[2]; days 1-7 and 8-14
  mean basal heart rate compared with saline group: significantly faster
[2]; epinephrine 1 μg/kg/min, day 14
  animals that achieved a 50% increase in rate at the lowest epinephrine dose: 100%
[2]; lowest dose of epinephrine
  increase in heart rate: > 50%
[2]; representative animal, day 14
  control rate prior to epinephrine: 52 bpm
[2]; representative animal, epinephrine 1 μg/kg/min
  rate with epinephrine: 81 bpm
[3]; 5 mM Cs+
  effect of Cs+ on inward current: blocked; also recorded: large inhibition
[3]; fully activated current/voltage relation
  reversal potential: ~−40 mV
[4]
  activation kinetics compared with mHCN2: faster
  activation threshold compared with mHCN2: less negative
[4]; [5]
  shift of V1/2 by cAMP: 5.6 mV
  V1/2: −40.7 mV
  s: 8.7 mV
[4]; 6 matched cell cultures
  percentage of myocytes expressing current: 36.6%
[4]; at −135 mV
  current density, times smaller than that of mHCN2: about 2.5 times
[4]; absence of cAMP
  V1/2: −46.3 mV
  s: 9.1 mV
[4]; mean of individual Boltzmann fits
  slope factor s: 9.6±0.4 mV
[4]; mean of individual Boltzmann fits, adenoviral infection
  V1/2 (voltage of half maximum activation): −46.9±1.2 mV
[4]; measured at −135 mV
  current density: 21.0±3.5 pA/pF
